Experiment in all cases: cells, lysate or membranes
Substrate in data set [1]: NCCCC[C@H](N)C(=O)O
In kind it is cell-based, Plasmodium berghei. As to conditions: ND96, pH 7.4, 500 μM unlabelled methionine present to lower background, labelled compound.

Substrate in data set [2]: N=C(N)NCCC[C@H](N)C(=O)O
In kind it is cell-based, Plasmodium berghei. The following applies: ND96, pH 7.4, 125 μM unlabelled methionine present to lower background, labelled compound.

Substrate in data set [3]: N=C(N)NCCC[C@H](N)C(=O)O
In kind it is cell-based, Toxoplasma gondii. As to conditions: ND96, pH 7.4, 0-1 mM arginine, labelled compound, Figure 3 legend prints 88±16.

B1: PbNPT1 (PbNPT1-HA) (Plasmodium berghei ANKA) (protein)
chain: MNESNCTKIVNFLKGMRLKTNPNLPGAKQKTPLNIHRFYLLLIIIIYTATSACIYFDWTSIRNLLLNVGKYEHLNISKYADITLSPQYKKINNLYPMTLAIHFTMSVFCGFLYDHIGPKFTAIIGQGFNILSWIFLSIDTTKIDTTLIGFIFLGLGADTAFIPILTVSNLFPDISTFIMTVIGAAASLSYAVPATLNFVYKKYPHFPFYYICYGYIFIILIPCLLVATFLLPMKPFKGLDYYLENDQESDSKNKEQISYTDNDVEMQPSLIQNGNTNVSNNVNKNKATKNIIEGENFHKQSILLFFKVLLSYPSICIIVYFILFNISTVFYGMVTDIYFSYNKSIINIINILMPISFIPCIIFGRFINKYGAAIIIIIMNAFSALMHLTALIKHQAAGLISAFLYMCAASIYTSQIYCFLLNAFPSVVFGKLLGITSLFGGMFSLFCEKLYDNISNSSGNKNDPTTISILLAISFIIMFLPLSILYTRNYEKNIESVNSEKNQIQA
notes: full ORF, synthetic codon-harmonized gene, C-terminal HA tag, cRNA in Xenopus laevis oocytes (pGHJ-HA)
With B1, the results for the Michaelis constant (Km) in data set [1] and in data set [2] were 130 ± 26 µM and 41 ± 9 µM, respectively.

B2: TgNPT1 (TgNPT1-HA) (Toxoplasma gondii ME49) (protein)
chain: MAGLLSSCCGRVYALLPDSAHPSAQQKTPFGVNRYVLLVIYMIYALLTSSVYFGWRSMSAMLFKSGQFSWVCTGESADTSPEEGETDYLCALQDTKVQSLFTIAMACHFTCSAVAGYLLDTVGPKAVALLGQTFNALAWILLAFSGPNFRSVYPAFVFMGAGADVSVYPTLLIVNLFPGSTALIMATLGACISLSFFVPLVLRTMWESTGISFEAVCIGYAVAGPILCAVVAFFFIPFKAFKGVDNFSACVEAEKLANSPTAQSSPKAVDSPPCDEGASSRGRLAVSHNTERTAPDDEQEKDNTERISLSDLACDPRFKKQKVSFSSQAFTFLYFGICLYFTVCGWVMAYYQEAAGRFLCNDAEYTLEILTPLSTIPCLLFGVVINRIGIMPVILMLNTIGLLTYVCVVAAESVVAQYFSVIFFFMYISIFTTQMYVFVESTFDSAHFGKLIGVASLIGGLLSLISNVLYGDVTVGMLNGDTRPVVIALLAVIILMYPILLAMRTKRNRKKQMEQEDIRSRVLELKAAHAADAA
notes: full ORF from RH cDNA, C-terminal HA tag, cRNA in Xenopus laevis oocytes (pGHJ-HA); calculated 58 kDa, runs at ~40 kDa in parasites; 12 predicted TM domains
On to B2, for which the Km in data set [3] came out at 88 ± 15 µM.

Broadly, the Km is the concentration of substrate that gives half-maximal velocity.

For the origin of these results see publication PMC5316894, “Cationic amino acid transporters play key roles in the survival and transmission of apicomplexan parasites” (Nature Communications, 2017).
